Test results taken from the supplement of paper PMC5998384.

Columns and labels:
[1] = tested on: HeLa Kyoto; assay: solubility change mitosis vs G1/S (difference of NP-40 vs SDS log2 ratios) (log2 ratio difference); higher = more soluble in mitosis
[2] = tested on: HeLa Kyoto; assay: thermal stability score vs G1/S (z-score of summed log2 fold changes over temperatures); higher = more thermally stable than in G1/S
[3] = tested on: HeLa Kyoto; assay: solubility in G1/S (NP-40 vs SDS abundance) (log2 ratio); higher = more soluble; details: cell cycle stage: G1/S
[4] = tested on: HeLa Kyoto; assay: melting temperature (median over replicates), in situ; higher = more thermally stable
[5] = cell cycle stage: early G1 (4.5 h after nocodazole release)
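Wherever melting temperature (median over replicates), in situ is given: HeLa Kyoto cells synchronized by double thymidine or nocodazole block, proteins quantified by TMT10plex mass spectrometry, three independent biological replicates.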
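Wherever solubility change mitosis vs G1/S (difference of NP-40 vs SDS log2 ratios) is given: synchronized HeLa Kyoto cells (double thymidine block for G1/S, nocodazole release for mitosis), protein amounts in NP-40 versus SDS lysates quantified by mass spectrometry, three biological replicates.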
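Wherever solubility in G1/S (NP-40 vs SDS abundance) is given: HeLa Kyoto cells arrested at G1/S by double thymidine block, proteins quantified by TMT10plex mass spectrometry in mild NP-40 versus SDS extracts, three biological replicates.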
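Wherever thermal stability score vs G1/S (z-score of summed log2 fold changes over temperatures) is given: synchronized HeLa Kyoto cells, proteins quantified by TMT10plex mass spectrometry, three biological replicates, mitosis taken 0.5 h after nocodazole release, G1/S directly after double thymidine block.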

Row | Sequence | solubility change mitosis (log2) [1] | thermal stability score [2, 5] | thermal stability score ([2]; cell cycle stage: mitosis) | solubility in G1/S (log2) [3] | melting temperature ([4]; cell cycle stage: G1/S) [°C] | melting temperature ([4]; cell cycle stage: mitosis) [°C]
1 | MDPSDFPSPFDPLTLPEKPLAGDLPVDMEFGEDLLESQTAPTRGWAPPGPSPSSGALDLLDTPAGLEKDPGVLDGATELLGLGGLLYKAPSPPEVDHGPEGTLAWDAGDQTLEPGPGGQTPEVVPPDPGAGANSCSPEGLLEPLAPDSPITLQSPHIEEEETTSIATARRGSPGQEEELPQGQPQSPNAPPSPSVGETLGDGINSSQTKPGGSSPPAHPSLPGDGLTAKASEKPPERKRSERVRRAEPPKPEVVDSTESIPVSDEDSDAMVDDPNDEDFVPFRPRRSPRMSLRSSVSQRAGRSAVGTKMTCAHCRTPLQKGQTAYQRKGLPQLFCSSSCLTTFSKKPSGKKTCTFCKKEIWNTKDSVVAQTGSGGSFHEFCTSVCLSLYEAQQQRPIPQSGDPADATRCSICQKTGEVLHEVSNGSVVHRLCSDSCFSKFRANKGLKTNCCDQCGAYIYTKTGSPGPELLFHEGQQKRFCNTTCLGAYKKKNTRVYPCVWCKTLCKNFEMLSHVDRNGKTSLFCSLCCTTSYKVKQAGLTGPPRPCSFCRRSLSDPCYYNKVDRTVYQFCSPSCWTKFQRTSPEGGIHLSCHYCHSLFSGKPEVLDWQDQVFQFCCRDCCEDFKRLRGVVSQCEHCRQEKLLHEKLRFSGVEKSFCSEGCVLLYKQDFTKKLGLCCITCTYCSQTCQRGVTEQLDGSTWDFCSEDCKSKYLLWYCKAARCHACKRQGKLLETIHWRGQIRHFCNQQCLLRFYSQQNQPNLDTQSGPESLLNSQSPESKPQTPSQTKVENSNTVRTPEENGNLGKIPVKTRSAPTAPTPPPPPPPATPRKNKAAMCKPLMQNRGVSCKVEMKSKGSQTEEWKPQVIVLPIPVPIFVPVPMHLYCQKVPVPFSMPIPVPVPMFLPTTLESTDKIVETIEELKVKIPSNPLEADILAMAEMIAEAEELDKASSDLCDLVSNQSAEGLLEDCDLFGPARDDVLAMAVKMANVLDEPGQDLEADFPKNPLDINPSVDFLFDCGLVGPEDVSTEQDLPRTMRKGQKRLVLSESCSRDSMSSQPSCTGLNYSYGVNAWKCWVQSKYANGETSKGDELRFGPKPMRIKEDILACSAAELNYGLAQFVREITRPNGERYEPDSIYYLCLGIQQYLLENNRMVNIFTDLYYLTFVQELNKSLSTWQPTLLPNNTVFSRVEEEHLWECKQLGVYSPFVLLNTLMFFNTKFFGLQTAEEHMQLSFTNVVRQSRKCTTPRGTTKVVSIRYYAPVRQRKGRDTGPGKRKREDEAPILEQRENRMNPLRCPVKFYEFYLSKCPESLRTRNDVFYLQPERSCIAESPLWYSVIPMDRSMLESMLNRILAVREIYEELGRPGEEDLD [ZMYM3] | 0.169 | 0.311 | 1.4 | -0.523 | 49.3 | 50.6
2 | MDRNPSPPPPGRDKEEEEEVAGGDCIGSTVYSKHWLFGVLSGLIQIVSPENTKSSSDDEEQLTELDEEMENEICRVWDMSMDEDVALFLQEFNAPDIFMGVLAKSKCPRLREICVGILGNMACFQEICVSISSDKNLGQVLLHCLYDSDPPTLLETSRLLLTCLSQAEVASVWVERIQEHPAIYDSICFIMSSSTNVDLLVKVGEVVDKLFDLDEKLMLEWVRNGAAQPLDQPQEESEEQPVFRLVPCILEAAKQVRSENPEWLDVYMHILQLLTTVDDGIQAIVHCPDTGKDIWNLLFDLVCHEFCQSDDPPIILQEQKTVLASVFSVLSAIYASQTEQEYLKIEKVDLPLIDSLIRVLQNMEQCQKKPENSAESNTEETKRTDLTQDDFHLKILKDILCEFLSNIFQALTKETVAQGVKEGQLSKQKCSSAFQNLLPFYSPVVEDFIKILREVDKALADDLEKNFPSLKVQT [SAAL1] | 0.00183 | 0.137 | 0.212 | 0.294 | 52.3 | 50.6
3 | MDRRSMGETESGDAFLDLKKPPASKCPHRYTKEELLDIKELPHSKQRPSCLSEKYDSDGVWDPEKWHASLYPASGRSSPVESLKKELDTDRPSLVRRIVDPRERVKEDDLDVVLSPQRRSFGGGCHVTAAVSSRRSGSPLEKDSDGLRLLGGRRIGSGRIISARTFEKDHRLSDKDLRDLRDRDRERDFKDKRFRREFGDSKRVFGERRRNDSYTEEEPEWFSAGPTSQSETIELTGFDDKILEEDHKGRKRTRRRTASVKEGIVECNGGVAEEDEVEVILAQEPAADQEVPRDAVLPEQSPGDFDFNEFFNLDKVPCLASMIEDVLGEGSVSASRFSRWFSNPSRSGSRSSSLGSTPHEELERLAGLEQAILSPGQNSGNYFAPIPLEDHAENKVDILEMLQKAKVDLKPLLSSLSANKEKLKESSHSGVVLSVEEVEAGLKGLKVDQQVKNSTPFMAEHLEETLSAVTNNRQLKKDGDMTAFNKLVSTMKASGTLPSQPKVSRNLESHLMSPAEIPGQPVPKNILQELLGQPVQRPASSNLLSGLMGSLEPTTSLLGQRAPSPPLSQVFQTRAASADYLRPRIPSPIGFTPGPQQLLGDPFQGMRKPMSPITAQMSQLELQQAALEGLALPHDLAVQAANFYQPGFGKPQVDRTRDGFRNRQQRVTKSPAPVHRGNSSSPAPAASITSMLSPSFTPTSVIRKMYESKEKSKEEPASGKAALGDSKEDTQKASEENLLSSSSVPSADRDSSPTTNSKLSALQRSSCSTPLSQANRYTKEQDYRPKATGRKTPTLASPVPTTPFLRPVHQVPLVPHVPMVRPAHQLHPGLVQRMLAQGVHPQHLPSLLQTGVLPPGMDLSHLQGISGPILGQPFYPLPAASHPLLNPRPGTPLHLAMVQQQLQRSVLHPPGSGSHAAAVSVQTTPQNVPSRSGLPHMHSQLEHRPSQRSSSPVGLAKWFGSDVLQQPLPSMPAKVISVDELEYRQ [EIF4ENIF1] | 0.0657 | -0.104 | 0.531 | 0.0256 | 50.3 | 49.3
4 | MDSLEEPQKKVFKARKTMRVSDRQQLEAVYKVKEELLKTDVKLLNGNHENGDLDPTSPLENMDYIKDKEEVNGIEEICFDPEGSKAEWKETPCILSVNVKNKQDDDLNCEPLSPHNITPEPVSKLPAEPVSGDPAPGDLDAGDPASGVLASGDSTSGDPTSSEPSSSDAASGDATSGDAPSGDVSPGDATSGDATADDLSSGDPTSSDPIPGEPVPVEPISGDCAADDIASSEITSVDLASGAPASTDPASDDLASGDLSSSELASDDLATGELASDELTSESTFDRTFEPKSVPVCEPVPEIDNIEPSSNKDDDFLEKNGADEKLEQIQSKDSLDEKNKADNNIDANEETLETDDTTICSDRPPENEKKVEEDIITELALGEDAISSSMEIDQGEKNEDETSADLVETINENVIEDNKSENILENTDSMETDEIIPILEKLAPSEDELTCFSKTSLLPIDETNPDLEEKMESSFGSPSKQESSESLPKEAFLVLSDEEDISGEKDESEVISQNETCSPAEVESNEKDNKPEEEEQVIHEDDERPSEKNEFSRRKRSKSEDMDNVQSKRRRYMEEEYEAEFQVKITAKGDINQKLQKVIQWLLEEKLCALQCAVFDKTLAELKTRVEKIECNKRHKTVLTELQAKIARLTKRFEAAKEDLKKRHEHPPNPPVSPGKTVNDVNSNNNMSYRNAGTVRQMLESKRNVSESAPPSFQTPVNTVSSTNLVTPPAVVSSQPKLQTPVTSGSLTATSVLPAPNTATVVATTQVPSGNPQPTISLQPLPVILHVPVAVSSQPQLLQSHPGTLVTNQPSGNVEFISVQSPPTVSGLTKNPVSLPSLPNPTKPNNVPSVPSPSIQRNPTASAAPLGTTLAVQAVPTAHSIVQATRTSLPTVGPSGLYSPSTNRGPIQMKIPISAFSTSSAAEQNSNTTPRIENQTNKTIDASVSKKAADSTSQCGKATGSDSSGVIDLTMDDEESGASQDPKKLNHTPVSTMSSSQPVSRPLQPIQPAPPLQPSGVPTSGPSQTTIHLLPTAPTTVNVTHRPVTQVTTRLPVPRAPANHQVVYTTLPAPPAQAPLRGTVMQAPAVRQVNPQNSVTVRVPQTTTYVVNNGLTLGSTGPQLTVHHRPPQVHTEPPRPVHPAPLPEAPQPQRLPPEAASTSLPQKPHLKLARVQSQNGIVLSWSVLEVDRSCATVDSYHLYAYHEEPSATVPSQWKKIGEVKALPLPMACTLTQFVSGSKYYFAVRAKDIYGRFGPFCDPQSTDVISSTQSS [ATF7IP] | -0.146 | 0.103 | 1.25 | 0.0405 | 49 | 49.8
5 | MDSNTAPLGPSCPQPPPAPQPQARSRLNATASLEQERSERPRAPGPQAGPGPGVRDAAAPAEPQAQHTRSRERADGTGPTKGDMEIPFEEVLERAKAGDPKAQTEVGKHYLQLAGDTDEELNSCTAVDWLVLAAKQGRREAVKLLRRCLADRRGITSENEREVRQLSSETDLERAVRKAALVMYWKLNPKKKKQVAVAELLENVGQVNEHDGGAQPGPVPKSLQKQRRMLERLVSSESKNYIALDDFVEITKKYAKGVIPSSLFLQDDEDDDELAGKSPEDLPLRLKVVKYPLHAIMEIKEYLIDMASRAGMHWLSTIIPTHHINALIFFFIVSNLTIDFFAFFIPLVIFYLSFISMVICTLKVFQDSKAWENFRTLTDLLLRFEPNLDVEQAEVNFGWNHLEPYAHFLLSVFFVIFSFPIASKDCIPCSELAVITGFFTVTSYLSLSTHAEPYTRRALATEVTAGLLSLLPSMPLNWPYLKVLGQTFITVPVGHLVVLNVSVPCLLYVYLLYLFFRMAQLRNFKGTYCYLVPYLVCFMWCELSVVILLESTGLGLLRASIGYFLFLFALPILVAGLALVGVLQFARWFTSLELTKIAVTVAVCSVPLLLRWWTKASFSVVGMVKSLTRSSMVKLILVWLTAIVLFCWFYVYRSEGMKVYNSTLTWQQYGALCGPRAWKETNMARTQILCSHLEGHRVTWTGRFKYVRVTDIDNSAESAINMLPFFIGDWMRCLYGEAYPACSPGNTSTAEEELCRLKLLAKHPCHIKKFDRYKFEITVGMPFSSGADGSRSREEDDVTKDIVLRASSEFKSVLLSLRQGSLIEFSTILEGRLGSKWPVFELKAISCLNCMAQLSPTRRHVKIEHDWRSTVHGAVKFAFDFFFFPFLSAA [WFS1] | -0.183 | 2.34 | 3.05 | 0.109 | 51.7 | 52.2
6 | MDSRYNSTAGIGDLNQLSAAIPATRVEVSVSCRNLLDRDTFSKSDPICVLYVQGVGNKEWREFGRTEVIDNTLNPDFVRKFILDYFFEERENLRFDLYDVDSKSPNLSKHDFLGQVFCTLGEIVGSQGSRLEKPIVGIPGKKCGTIILTAEELNCCRDAVLMQFCANKLDKKDFFGKSDPFLVFYRSNEDGSFTICHKTEVVKNTLNPVWQAFKISVRALCNGDYDRTIKVEVYDWDRDGSHDFIGEFTTSYRELSRGQSQFNVYEVVNPKKKGKKKKYTNSGTVTLLSFLVETEVSFLDYIKGGTQINFTVAIDFTASNGNPAQPTSLHYMNPYQLNAYGMALKAVGEIVQDYDSDKMFPALGFGAKLPPDGRISHEFALNGNPQNPYCDGIEGVMEAYYRSLKSVQLYGPTNFAPVINHVARYASSVKDGSQYFVLLIVTDGVISDMAQTKESIVNASKLPMSIIIVGVGPAEFDAMVELDGDDVRVSSRGKYAERDIVQFVPFRDYIDRSGNHILSMARLAKDVLAEIPEQFLSYMRARGIKPSPAPPPYTPPTHVLQTQI [CPNE8] | -0.135 | 1.74 | 5.6 | -1.4 | 54.1 | 53
